Here are results for four molecules from US20160331662A1 (UAB RESEARCH FOUNDATION, published 2016).

First the molecules themselves.
B3: FL^SspB (S. gordonii DL1 SspB, residues 39-1433) (other)
chain: DEVTETTSTSTVEVATTGNPATNLPEAQGEMSQVAKESQAKAGSKESALPVEVSSADLDKAVADAKSAGVKVVQDETKDKGTATTATDNAQKQDEIKSDYAKQAEEIKTTTEAYKKEVAAHQAETDKINAENKAADDKYQKDLKSHQEEVEKINTANATAKAEYEAKLAQYQKDLATVKKANEDSQQDYQNKLSAYQTELARVQKANAEAKEAYEKAVKENTAKNEALKVENEAIKQRNETAKATYEAAMKQYEADLAAIKKANEDNDADYQAKLAAYQTELARVQKANAEAKEAYDKAVKENTAKNTAIQAENEAIKQRNETAKATYDAAVKKYEADLAAVKQANATNEADYQAKLAAYQTELARVQKANADAKATYEKAVEDNKAKNAAIKAENEEIKQRNAVAKTDYEAKLAKYEADLAKYKKEFAAYTAALAEAESKKKQDGYLSEPRSQSLNFKSEPNAIRTIDSSVHQYGQQELDALVKSWGISPTNPDRKKSRAYSYFNAINSNNTYAKLVLEKDKPVDVTYTGLKNSSFNGKKISKVVYTYTLKETGFNDGTKMTMFASSDPTVTAWYNDYFTSTNINVKVKFYDEEGQLMNLTGGLVNFSSLNRGNGSGAIDKDAIESVRNFNGRYIPISGSSIKIHENNSAYADSSNAEKSLGARWNTSEWDTTSSPNNWYGAIVGEITQSEISFNMASSKSGNIWFAFNSNINAIGVPTKPVAPTAPTQPMYETEKPLEPAPVAPSYENEPTPPVKTPDQPEPSKPEEPTYETEKPLEPAPVAPSYENEPTPPVKTPDQPEPSKPEEPNYETEKPLEPAPVAPSYENEPTPPVKIPDQPEPSKPEEPTYDPLPTPPLAPTPKQLPTPPVVPTVHFHYSSLLAQPQINKEIKNEDGVDIDRTLVAKQSIVKFELKTEALTAGRPKTTSFVLVDPLPTGYKFDLDATKAASTGFDTTYDEASHTVTFKATDETLATYNADLTKPVETLHPTVVGRVLNDGATYTNNFTLTVNDAYGIKSNVVRVTTPGKPNDPDNPNNNYIKPTKVNKNKEGLNIDGKEVLAGSTNYYELTWDLDQYKGDKSSKEAIQNGFYYVDDYPEEALDVRPDLVKVADEKGNQVSGVSVQQYDSLEAAPKKVQDLLKKANITVKGAFQLFSADNPEEFYKQYVATGTSLVITDPMTVKSEFGKTGGKYENKAYQIDFGNGYATEVVVNNVPKITPKKDVTVSLDPTSENLDGQTVQLYQTFNYRLIGGLIPQNHSEELEDYSFVDDYDQAGDQYTGNYKTFSSLNLTMKDGSVIKAGTDLTSQTTAETDATNGIVTVRFKEDFLQKISLDSPFQAETYLQMRRIAIGTFENTYVNTVNKVAYASNTVRTTTPIPRTPDKPTPIPTPKPKDP
notes: range 39-1433

Assay [1] has as its target T1, FL^AgI/II (S. mutans UA159 Antigen I/II, full length recombinant construct) (Streptococcus mutans UA159, UniProt P23504 39-1562).
T1 construct: also called CG14
Briefly: SPR, analyte over ligand deglycosylated on the CM5 chip, 1:1 Langmuir model.

Assay [2] addresses T2, A3VP1^AgI/II (Streptococcus mutans UA159, UniProt P23504 386-874).
T2 construct: domain: A3VP1; also called A3VP1 of AgI/II
T2 sequence: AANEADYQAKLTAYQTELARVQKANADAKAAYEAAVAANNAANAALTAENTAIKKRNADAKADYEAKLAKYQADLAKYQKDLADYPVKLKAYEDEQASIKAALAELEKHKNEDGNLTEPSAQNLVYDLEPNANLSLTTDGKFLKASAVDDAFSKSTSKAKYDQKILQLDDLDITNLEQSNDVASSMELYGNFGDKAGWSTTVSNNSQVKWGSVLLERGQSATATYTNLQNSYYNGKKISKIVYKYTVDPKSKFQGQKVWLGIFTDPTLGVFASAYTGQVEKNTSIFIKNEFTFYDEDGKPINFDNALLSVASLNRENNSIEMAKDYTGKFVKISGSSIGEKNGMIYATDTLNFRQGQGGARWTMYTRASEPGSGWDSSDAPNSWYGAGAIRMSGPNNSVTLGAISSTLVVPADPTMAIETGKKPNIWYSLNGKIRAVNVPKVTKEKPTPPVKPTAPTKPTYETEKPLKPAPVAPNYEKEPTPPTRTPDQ
Described as above.

The target in assay [3] is T3, C123^AgI/II (Streptococcus mutans UA159, UniProt P23504 1000-1486).
T3 construct: domain: C123
T3 sequence: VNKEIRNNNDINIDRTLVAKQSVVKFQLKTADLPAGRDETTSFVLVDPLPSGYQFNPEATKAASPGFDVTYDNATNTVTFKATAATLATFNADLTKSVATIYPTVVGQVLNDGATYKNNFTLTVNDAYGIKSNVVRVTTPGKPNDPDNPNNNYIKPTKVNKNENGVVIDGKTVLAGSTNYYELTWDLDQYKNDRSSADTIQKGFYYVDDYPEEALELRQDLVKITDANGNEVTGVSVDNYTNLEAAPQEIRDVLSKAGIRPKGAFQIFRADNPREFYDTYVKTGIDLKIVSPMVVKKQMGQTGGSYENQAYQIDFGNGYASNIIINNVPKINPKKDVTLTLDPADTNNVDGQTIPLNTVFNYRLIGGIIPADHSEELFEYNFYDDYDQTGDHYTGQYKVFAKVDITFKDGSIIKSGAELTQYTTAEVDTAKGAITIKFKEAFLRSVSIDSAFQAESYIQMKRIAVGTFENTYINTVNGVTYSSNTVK
The description is as above.

Assay [4] concerns the target B3. The assay is described as above.
In assay [5] the target is T4, iSRCR123 (human, UniProt Q9UGM3 102-463).
T4 construct: domain: SRCR123; also called SRCRs; iSRCRs
T4 sequence (Q9UGM3 102-463 limits assumed): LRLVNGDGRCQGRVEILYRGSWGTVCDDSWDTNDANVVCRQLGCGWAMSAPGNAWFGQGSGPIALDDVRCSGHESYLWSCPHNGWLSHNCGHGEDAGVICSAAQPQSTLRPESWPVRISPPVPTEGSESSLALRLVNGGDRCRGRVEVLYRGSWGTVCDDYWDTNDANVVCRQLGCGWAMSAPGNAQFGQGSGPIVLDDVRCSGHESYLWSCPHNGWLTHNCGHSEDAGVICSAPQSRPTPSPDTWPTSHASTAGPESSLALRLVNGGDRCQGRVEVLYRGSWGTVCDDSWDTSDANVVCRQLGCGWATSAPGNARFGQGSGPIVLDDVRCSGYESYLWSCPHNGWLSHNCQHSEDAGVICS
Description: SPR, analyte over immobilized iSRCR123; quantity and unit not printed beside the number, told as 'nanomolar affinities'. On the technique in general: SPR reads the build-up and loss of mass on a sensor chip optically.

In assay [6] the target is T1, FL^AgI/II (S. mutans UA159 Antigen …). Description: SPR, analyte over ligand immobilized on CM5 chip, 1:1 Langmuir model; SPR with calcium; immobilized iSRCR1, not deglycosylated.
Assay [7] has as its target T2, A3VP1^AgI/II. Described as above.
Assay [8] has as its target T3, C123^AgI/II. Described as above.
In assay [9] the target is B3. Described as above.
In assay [10] the target is T4, iSRCR123. Briefly: SPR, analyte over immobilized iSRCR1; quantity and unit not printed beside the number, unit taken from the paragraph's 'nanomolar affinities'.
For assay [11], the target named is salivary agglutinin (SAG) (human, UniProt Q9UGM3 20-2413). Description: SPR, analyte over SAG immobilized on CM5 chip, 1:1 Langmuir model.
Sequence of salivary agglutinin (SAG) (Q9UGM3 whole entry): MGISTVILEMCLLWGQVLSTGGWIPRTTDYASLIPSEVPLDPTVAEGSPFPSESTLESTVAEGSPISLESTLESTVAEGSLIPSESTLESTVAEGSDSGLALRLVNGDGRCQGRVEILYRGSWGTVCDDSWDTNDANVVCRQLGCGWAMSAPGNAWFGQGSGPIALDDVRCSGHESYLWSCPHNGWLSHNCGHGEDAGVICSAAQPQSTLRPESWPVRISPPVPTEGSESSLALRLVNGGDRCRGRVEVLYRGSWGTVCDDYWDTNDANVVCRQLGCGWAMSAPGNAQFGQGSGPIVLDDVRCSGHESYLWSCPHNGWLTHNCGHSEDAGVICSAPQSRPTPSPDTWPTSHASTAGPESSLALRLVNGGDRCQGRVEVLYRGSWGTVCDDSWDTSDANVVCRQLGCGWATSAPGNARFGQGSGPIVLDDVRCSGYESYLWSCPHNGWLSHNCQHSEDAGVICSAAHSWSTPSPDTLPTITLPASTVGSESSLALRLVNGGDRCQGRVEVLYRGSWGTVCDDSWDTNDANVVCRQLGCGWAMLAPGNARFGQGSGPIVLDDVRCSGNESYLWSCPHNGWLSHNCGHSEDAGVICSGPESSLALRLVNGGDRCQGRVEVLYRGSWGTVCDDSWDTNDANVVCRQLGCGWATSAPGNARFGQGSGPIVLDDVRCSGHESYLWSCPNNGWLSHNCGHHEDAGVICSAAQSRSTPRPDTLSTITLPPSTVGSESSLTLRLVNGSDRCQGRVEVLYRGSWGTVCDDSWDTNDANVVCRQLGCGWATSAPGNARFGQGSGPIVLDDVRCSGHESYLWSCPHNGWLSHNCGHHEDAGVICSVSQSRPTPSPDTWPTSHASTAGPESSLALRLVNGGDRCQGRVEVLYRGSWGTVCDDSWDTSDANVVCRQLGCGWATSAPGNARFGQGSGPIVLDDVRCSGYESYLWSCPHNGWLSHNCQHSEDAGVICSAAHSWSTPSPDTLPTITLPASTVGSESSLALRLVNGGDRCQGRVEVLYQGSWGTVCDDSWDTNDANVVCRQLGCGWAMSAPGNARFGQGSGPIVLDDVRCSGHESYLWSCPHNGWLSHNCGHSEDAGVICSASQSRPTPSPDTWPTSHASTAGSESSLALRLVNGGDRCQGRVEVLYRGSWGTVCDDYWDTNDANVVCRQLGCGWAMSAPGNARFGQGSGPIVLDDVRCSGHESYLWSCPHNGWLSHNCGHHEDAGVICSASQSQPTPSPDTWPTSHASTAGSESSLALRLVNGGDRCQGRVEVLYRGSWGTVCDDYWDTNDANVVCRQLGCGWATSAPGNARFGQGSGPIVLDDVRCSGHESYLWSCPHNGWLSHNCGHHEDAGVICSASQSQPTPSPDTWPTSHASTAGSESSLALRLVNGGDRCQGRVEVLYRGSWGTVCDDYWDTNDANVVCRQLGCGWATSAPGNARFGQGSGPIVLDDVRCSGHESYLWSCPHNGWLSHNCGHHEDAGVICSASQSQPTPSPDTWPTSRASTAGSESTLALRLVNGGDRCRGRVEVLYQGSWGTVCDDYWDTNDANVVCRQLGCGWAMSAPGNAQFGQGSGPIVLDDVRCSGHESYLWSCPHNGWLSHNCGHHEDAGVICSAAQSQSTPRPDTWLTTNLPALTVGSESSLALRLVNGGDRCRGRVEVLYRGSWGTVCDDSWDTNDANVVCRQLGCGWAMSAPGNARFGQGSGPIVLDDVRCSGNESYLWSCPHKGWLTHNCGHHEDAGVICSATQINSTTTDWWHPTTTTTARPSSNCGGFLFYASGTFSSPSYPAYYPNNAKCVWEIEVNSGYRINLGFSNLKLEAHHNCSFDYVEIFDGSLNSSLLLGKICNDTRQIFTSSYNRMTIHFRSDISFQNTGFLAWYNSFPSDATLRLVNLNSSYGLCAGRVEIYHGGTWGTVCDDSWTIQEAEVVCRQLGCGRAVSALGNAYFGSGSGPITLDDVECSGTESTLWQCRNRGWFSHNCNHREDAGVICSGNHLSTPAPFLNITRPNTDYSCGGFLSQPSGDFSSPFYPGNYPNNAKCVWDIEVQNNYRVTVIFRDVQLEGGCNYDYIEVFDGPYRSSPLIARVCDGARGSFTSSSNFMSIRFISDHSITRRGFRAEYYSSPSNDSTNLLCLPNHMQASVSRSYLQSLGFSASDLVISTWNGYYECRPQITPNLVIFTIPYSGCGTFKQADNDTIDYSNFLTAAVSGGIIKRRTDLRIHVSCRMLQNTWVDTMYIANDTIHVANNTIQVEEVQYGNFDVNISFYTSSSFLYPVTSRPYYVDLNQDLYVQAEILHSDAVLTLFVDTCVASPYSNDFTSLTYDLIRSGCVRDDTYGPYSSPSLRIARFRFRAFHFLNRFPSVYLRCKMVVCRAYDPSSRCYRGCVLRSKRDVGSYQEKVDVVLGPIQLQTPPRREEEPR

One may read the Kd as a measure of binding affinity in units of concentration. The koff is a measure of how fast the partners let go of each other. The term kon denotes a measure of how fast the partners come together.

T1 sequence (P23504 39-1562): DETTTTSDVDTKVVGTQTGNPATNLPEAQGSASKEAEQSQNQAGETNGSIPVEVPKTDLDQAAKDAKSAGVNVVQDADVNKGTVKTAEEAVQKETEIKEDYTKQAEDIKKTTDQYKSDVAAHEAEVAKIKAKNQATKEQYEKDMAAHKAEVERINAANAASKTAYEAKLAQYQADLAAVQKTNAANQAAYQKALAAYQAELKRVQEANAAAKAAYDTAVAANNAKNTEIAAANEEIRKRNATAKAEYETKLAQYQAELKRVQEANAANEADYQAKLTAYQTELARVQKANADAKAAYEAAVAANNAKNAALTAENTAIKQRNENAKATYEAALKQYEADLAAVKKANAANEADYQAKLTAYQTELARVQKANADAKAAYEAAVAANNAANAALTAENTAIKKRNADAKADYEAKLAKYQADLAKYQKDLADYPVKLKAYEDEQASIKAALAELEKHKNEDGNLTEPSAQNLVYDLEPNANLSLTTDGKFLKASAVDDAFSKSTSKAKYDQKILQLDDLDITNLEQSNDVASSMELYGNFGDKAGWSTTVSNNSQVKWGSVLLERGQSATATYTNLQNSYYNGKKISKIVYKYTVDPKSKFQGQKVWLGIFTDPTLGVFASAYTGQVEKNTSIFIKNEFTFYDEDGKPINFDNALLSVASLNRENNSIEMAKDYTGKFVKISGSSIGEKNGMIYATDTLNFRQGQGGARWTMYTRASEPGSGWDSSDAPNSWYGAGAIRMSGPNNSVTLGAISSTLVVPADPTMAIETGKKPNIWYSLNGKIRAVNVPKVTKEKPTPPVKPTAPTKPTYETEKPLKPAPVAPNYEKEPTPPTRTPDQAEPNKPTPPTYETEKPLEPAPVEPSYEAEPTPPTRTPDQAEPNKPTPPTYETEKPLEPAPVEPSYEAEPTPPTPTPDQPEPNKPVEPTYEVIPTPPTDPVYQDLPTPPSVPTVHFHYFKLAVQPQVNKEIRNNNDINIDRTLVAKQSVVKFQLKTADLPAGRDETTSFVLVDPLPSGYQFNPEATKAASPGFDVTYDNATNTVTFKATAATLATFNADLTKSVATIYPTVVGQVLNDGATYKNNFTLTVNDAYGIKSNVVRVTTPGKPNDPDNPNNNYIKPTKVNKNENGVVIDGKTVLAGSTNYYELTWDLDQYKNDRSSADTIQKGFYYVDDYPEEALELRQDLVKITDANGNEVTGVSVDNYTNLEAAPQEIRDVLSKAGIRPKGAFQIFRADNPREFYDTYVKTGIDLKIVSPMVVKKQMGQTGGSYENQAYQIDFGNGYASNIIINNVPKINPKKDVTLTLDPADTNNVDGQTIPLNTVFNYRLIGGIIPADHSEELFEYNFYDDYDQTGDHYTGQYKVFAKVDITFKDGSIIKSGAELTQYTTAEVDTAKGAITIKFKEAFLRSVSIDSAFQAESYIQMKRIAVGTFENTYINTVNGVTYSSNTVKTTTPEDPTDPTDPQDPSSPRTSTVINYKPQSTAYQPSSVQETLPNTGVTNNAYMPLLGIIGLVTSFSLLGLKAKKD

B1: iSRCR123 (Deglycosylated) (receptor)
chain: not shown
notes: domain: SRCR123; also called deglycosylated iSRCR123
Consider B1, for which the Ka in [1] was 6.82e+06 M⁻¹; in [2], 1.22e+06 M⁻¹; in assay [3], 458000 M⁻¹; in [4], 5.24e+06 M⁻¹. Further, the Kd amounted to 147 nM in assay [1], 818 nM in [2], 2180 nM in assay [3] and 191 nM in [4]. The koff in assay [1] amounted to 0.000464 s⁻¹; in assay [2] it was 0.00333 s⁻¹; in assay [3], 0.00658 s⁻¹; in [4], 0.00132 s⁻¹. Further, the kon stood at 3160 M⁻¹ s⁻¹ in assay [1], 4070 M⁻¹ s⁻¹ in [2], 3010 M⁻¹ s⁻¹ in [3] and 6920 M⁻¹ s⁻¹ in assay [4].

B2: iSRCR1 (receptor, not shown: small tags and cut ends)
chain: not shown
notes: domain: SRCR1; also called SRCRs; iSRCRs
For the molecule B2, the Kd in assay [5] came to 1.2 nM; in assay [6], 7.69 nM; in assay [7], 117 nM; in assay [8] it was 151 nM; in [9] it was 256 nM; in assay [10], 5.68 nM. The Ka was 1.31e+08 M⁻¹ in assay [6], 8.57e+06 M⁻¹ in [7], 6.46e+06 M⁻¹ in [8] and 3.91e+06 M⁻¹ in [9]. Besides, the koff in [6] stood at 0.000976 s⁻¹; in [7], 0.00327 s⁻¹; in [8] it was 0.00232 s⁻¹; in assay [9], 0.00237 s⁻¹. Further, the kon in [6] worked out at 127000 M⁻¹ s⁻¹; in assay [7], 28000 M⁻¹ s⁻¹; in assay [8] it was 15400 M⁻¹ s⁻¹; in [9] it was 9250 M⁻¹ s⁻¹.
In [11], B3 registered a Ka of 1.63e+08 M⁻¹, a Kd of 6.15 nM, a koff of 0.00197 s⁻¹ and a kon of 320000 M⁻¹ s⁻¹.

B4: iSRCR1 (Deglycosylated) (receptor)
chain: not shown
notes: domain: SRCR1; also called deglycosylated iSRCR1
B4: the Ka in [1] is 865000 M⁻¹; in [2], 1.92e+06 M⁻¹; in assay [3], 48100 M⁻¹; in [4], 7.97e+06 M⁻¹. Also, the Kd in assay [1] amounted to 1160 nM; in assay [2], 520 nM; in [3], 20800 nM; in [4], 125 nM. For the same molecule, the koff worked out at 0.0575 s⁻¹ in assay [1], 0.00274 s⁻¹ in assay [2], 0.0246 s⁻¹ in assay [3] and 0.00104 s⁻¹ in assay [4]. Moreover, the kon in assay [1] was 49700 M⁻¹ s⁻¹; in assay [2], 5270 M⁻¹ s⁻¹; in [3], 1180 M⁻¹ s⁻¹; in assay [4], 8300 M⁻¹ s⁻¹.
